US20200316226A1

Legend:
[1] = target: CD68 on macrophages of mouse splenocytes (mouse) (UniProt P31996); assay: cell-based or functional assay
[2] = target: Discoidin domain receptor tyrosine kinase 2 (DDR2) on neonatal rat cardiac fibroblasts (rat); assay: cell-based or functional assay

Chain of UniProt P31996 (P31996 21-326): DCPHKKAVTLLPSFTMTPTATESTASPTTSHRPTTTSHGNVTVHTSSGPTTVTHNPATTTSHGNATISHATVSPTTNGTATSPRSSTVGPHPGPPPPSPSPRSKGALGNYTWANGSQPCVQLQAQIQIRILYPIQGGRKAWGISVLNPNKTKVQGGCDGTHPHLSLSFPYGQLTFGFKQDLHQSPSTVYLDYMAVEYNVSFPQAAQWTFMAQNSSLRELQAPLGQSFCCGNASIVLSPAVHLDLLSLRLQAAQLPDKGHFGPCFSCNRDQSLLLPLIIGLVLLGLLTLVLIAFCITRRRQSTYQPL

| macrophage uptake of FITC:CD68-cloaked CDCexo by FACS, 5 minutes of incubation [1] [%] | macrophage uptake of FITC:CD68-cloaked CDCexo by FACS, 15 minutes of incubation [1] [%] | rate of uptake of control-cloaked CDCexo by rat cardiac fibroblasts, flow cytometry [2] [%] | uptake of bio-IgG/FITC CDC-EV by neonatal rat cardiac fibroblasts after twelve hours, flow cytometry [2] [%] | Substance |
| --- | --- | --- | --- | --- |
| 91 | 93 |  |  | biotinylated CD68 monoclonal antibody (bio-CD68), clone FA-11 (ThermoFisher) |
|  |  | 5 | 5 | biotinylated IgG isotype antibody (bio-IgG) control (rabbit IgG isotype control, Abcam cat # ab200208) |
